Laboratory results reported in paper doi:10.1101/2020.08.21.260711, “Eukaryotic translation initiation factor 5A and its hypusination play an important role in proliferation and differentiation of the human enteric protozoan parasite Entamoeba histolytica” (bioRxiv, 2020).

Biological target: T1, Entamoeba histolytica deoxyhypusine synthase 1 (EhDHS1) with the amino-terminal His-tag (E. histolytica, UniProt C4LXB8 1-331)
T1 sequence (looked up): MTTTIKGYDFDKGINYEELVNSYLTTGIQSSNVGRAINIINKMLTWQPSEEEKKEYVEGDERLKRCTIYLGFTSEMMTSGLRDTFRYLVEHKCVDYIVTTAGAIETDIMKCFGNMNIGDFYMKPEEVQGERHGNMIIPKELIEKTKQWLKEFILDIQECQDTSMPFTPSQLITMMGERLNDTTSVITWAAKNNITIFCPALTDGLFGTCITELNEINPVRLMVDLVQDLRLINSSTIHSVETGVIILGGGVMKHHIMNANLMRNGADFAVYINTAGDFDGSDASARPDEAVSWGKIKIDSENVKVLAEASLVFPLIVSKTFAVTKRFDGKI
Experiment: cell-based or functional assay

B1: Entamoeba histolytica deoxyhypusine synthase 2 (EhDHS2) with the carboxyl-terminal S-tag (enzyme, E. histolytica, UniProt C4M2N7 1-336, looked up)
chain: MSITGEEFAKVTSKVLGESKEYKGEKCIGYDFDNGVDFNKVMEKMKYTGFQALNLGLCIEQVNEMRKNHAKIFLGMSSNIVSSGLREVIHYLVKNKFVDAIVVTAGGIEEDFIKTMHPTLLGDFYFKGKELYPNGYNRIGNLILPNSNYCEFEDWMDPLLLECLKEQNEHGVHWTPSKLVHKMGESINNESSIYYWAAKNNIPVFSPAITDGSIGDMIFFFSYKNEGLVLDLVQDVIKIDEMAFNAEKVGCLLVGAGIAKHHILNAMKRRGGCDYCAMLSTSIECDASDAGSEIAADRTKGFFKPECNPAKVIGDATILLPLIVASTFAQKEEPTK
notes: EhDHS2 gene amplified by PCR, stop codon removed, cloned into AatII-XhoI of pETDuet-EhDHS1; The stop codon was removed to fuse the gene with the C-terminal S-Tag of pETDuet; also called S-tag DHS2; EHI_006030; source: E. coli BL21 (DE3), coexpressed with EhDHS1 from pETDuet-EhDHS1/2, in lysate, then copurified on Ni2+-NTA; not shown: S-tag, C-terminal, kept
Q: B1 was tested. Which “DHS enzymatic activity (1,3-diaminopropane production) of coexpressed EhDHS1/EhDHS2 as compared to EhDHS1 alone, with EheIF5A1 or EheIF5A2 as substrates” value did it give?
A: > 2000 fold
